Results on three molecules are retold here after paper PMC9922282, “Small molecule inhibitors of 15-PGDH exploit a physiologic induced-fit closing system” (Nature Communications, 2023).

One data set has as its target T1, 15-PGDH (Homo sapiens, UniProt P15428).
T1 construct: gene HPGD; recombinant human 15-PGDH with C-terminal TEV-cleavable 6xHis tag, homodimer
T1 sequence (P15428 1-256): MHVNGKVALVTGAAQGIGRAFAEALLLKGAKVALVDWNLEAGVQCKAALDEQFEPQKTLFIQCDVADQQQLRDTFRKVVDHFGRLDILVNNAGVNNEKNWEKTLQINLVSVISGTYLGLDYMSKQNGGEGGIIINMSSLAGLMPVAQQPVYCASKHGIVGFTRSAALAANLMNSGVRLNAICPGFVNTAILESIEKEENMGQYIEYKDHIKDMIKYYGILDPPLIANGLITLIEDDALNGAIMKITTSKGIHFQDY
The data set can be described thus: cryo-EM structure of the 15-PGDH-NADH complex ([…] Å); thermal shift. Type of data set: binding.

Substrate in data set [1]: CCCCC[C@H](O)/C=C/[C@H]1[C@H](O)CC(=O)[C@@H]1C/C=C\CCCC(=O)O
The data set can be described thus: Michaelis-Menten kinetics of PGE2 oxidation (Km). Type of data set: biochemical, Homo sapiens. The following applies: NAD+ active site.

As to `NC(=O)C1=CN([C@@H]2O[C@H](COP(=O)(O)OP(=O)(O)OC[C@H]3O[C@@H](n4cnc5c(N)ncnc54)[C@H](O)[C@@H]3O)[C@@H](O)[C@H]2O)C=CC1` [NADH], the “cryo-EM structure of the 15-PGDH-NADH complex (3.3 Å); thermal shift” value at 15-PGDH was “we employed cryo-EM to solve the structure of the 15-PGDH-NADH complex in the absence of inhibitor”.

B1: 15-PGDH (Homo sapiens) (protein)
chain: MHVNGKVALVTGAAQGIGRAFAEALLLKGAKVALVDWNLEAGVQCKAALDEQFEPQKTLFIQCDVADQQQLRDTFRKVVDHFGRLDILVNNAGVNNEKNWEKTLQINLVSVISGTYLGLDYMSKQNGGEGGIIINMSSLAGLMPVAQQPVYCASKHGIVGFTRSAALAANLMNSGVRLNAICPGFVNTAILESIEKEENMGQYIEYKDHIKDMIKYYGILDPPLIANGLITLIEDDALNGAIMKITTSKGIHFQDYDTTPFQAKTQ
notes: recombinant human 15-PGDH with C-terminal TEV-cleavable 6xHis tag
Turning to B1, the Km (in general, the substrate concentration at which the rate is half of its maximum) in data set [1] is reported as 2.2 µM.

B2: 15-PGDH (Homo sapiens; Y217A) (protein)
chain: MHVNGKVALVTGAAQGIGRAFAEALLLKGAKVALVDWNLEAGVQCKAALDEQFEPQKTLFIQCDVADQQQLRDTFRKVVDHFGRLDILVNNAGVNNEKNWEKTLQINLVSVISGTYLGLDYMSKQNGGEGGIIINMSSLAGLMPVAQQPVYCASKHGIVGFTRSAALAANLMNSGVRLNAICPGFVNTAILESIEKEENMGQYIEYKDHIKDMIKYAGILDPPLIANGLITLIEDDALNGAIMKITTSKGIHFQDYDTTPFQAKTQ
notes: as for B1
With B2, the Km in data set [1] is 11 µM.
